Experiments:
Experiment in all cases: SPR (Biacore T200), 6B5 captured on Protein A chip; response against concentration
[1] = molecular target: T1, recombinant human CD80 protein (human B7-1/CD80 protein, with His tag) (human, UniProt P33681 35-242)
T1 construct: Bought protein
T1 sequence (looked up): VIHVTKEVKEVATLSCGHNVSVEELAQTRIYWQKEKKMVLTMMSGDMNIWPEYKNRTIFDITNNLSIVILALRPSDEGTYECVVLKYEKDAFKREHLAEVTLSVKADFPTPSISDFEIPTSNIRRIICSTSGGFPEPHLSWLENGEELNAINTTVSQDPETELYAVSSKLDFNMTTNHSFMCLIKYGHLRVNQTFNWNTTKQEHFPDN
Protocol: (§1) The anti-human B7-H3 antibodies were tested for their binding capability to B7 family proteins by SPR using Biacore T200 biosensor (Biacore, US) provided with a pre-fixed Protein A sensor chip.
(§2) The dissociation was monitored for 600 sec. The data was analyzed using Biacore 8k evaluation software version 3.0, to obtain the binding responses, and the protein concentration-binding response curves were plotted, to determine the cross-reaction of the anti-human B7-H3 antibodies to the B7 family proteins.

[2] = molecular target: T2, human B7-2/CD86 protein, with His tag (human, UniProt P42081 26-247, limits assumed)
T2 construct: Bought protein
T2 sequence (looked up): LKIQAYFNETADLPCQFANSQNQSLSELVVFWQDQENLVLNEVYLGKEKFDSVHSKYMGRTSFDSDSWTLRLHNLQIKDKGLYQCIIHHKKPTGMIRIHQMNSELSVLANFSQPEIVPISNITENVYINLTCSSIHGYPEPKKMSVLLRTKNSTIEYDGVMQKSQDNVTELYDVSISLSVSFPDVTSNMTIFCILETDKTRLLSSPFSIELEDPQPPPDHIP
Protocol: as §1, §2

[3] = molecular target: T3, human PD-L1/B7-H1 protein, with His tag (human, UniProt Q9NZQ7 19-238)
T3 construct: Bought protein
Protocol: as §1, §2

[4] = molecular target: T4, human B7-H2/ICOSLG protein, with His tag (human, UniProt O75144 19-258, limits assumed)
T4 construct: Bought protein
T4 sequence (looked up): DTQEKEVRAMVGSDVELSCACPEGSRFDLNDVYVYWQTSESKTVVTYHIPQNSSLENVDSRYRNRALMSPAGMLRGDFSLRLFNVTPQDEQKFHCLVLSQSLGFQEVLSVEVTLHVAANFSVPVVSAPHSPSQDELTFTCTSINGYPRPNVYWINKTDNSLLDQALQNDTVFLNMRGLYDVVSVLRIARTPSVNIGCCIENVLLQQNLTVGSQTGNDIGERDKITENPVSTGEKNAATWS
Protocol: as §1, §2

[5] = molecular target: T5, human B7-H4 protein, with His tag (MALS verified) (human, UniProt Q7Z7D3 29-258, limits assumed)
T5 construct: Bought protein
T5 sequence (looked up): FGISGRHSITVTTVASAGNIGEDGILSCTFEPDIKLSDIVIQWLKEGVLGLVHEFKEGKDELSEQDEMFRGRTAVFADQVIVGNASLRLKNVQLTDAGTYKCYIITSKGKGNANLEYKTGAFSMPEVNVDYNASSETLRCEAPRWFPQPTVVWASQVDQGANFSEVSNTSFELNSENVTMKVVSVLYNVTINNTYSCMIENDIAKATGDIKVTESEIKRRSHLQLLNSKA
Protocol: as §1, §2

[6] = molecular target: T6, human B7-H5/Gi24/VISTA protein, with His tag (MALS verified) (human, UniProt Q9H7M9 33-194)
T6 construct: Bought protein
T6 sequence (looked up): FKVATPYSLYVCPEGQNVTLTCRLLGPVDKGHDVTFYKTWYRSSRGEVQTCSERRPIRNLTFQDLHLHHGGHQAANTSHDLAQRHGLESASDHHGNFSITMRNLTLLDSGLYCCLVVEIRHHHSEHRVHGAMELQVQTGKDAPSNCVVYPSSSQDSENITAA
Protocol: as §1, §2

[7] = molecular target: T7, human B7-H7/HHLA2 protein, with His tag (MALS verified) (human, UniProt Q9UM44 23-344, limits assumed)
T7 construct: Bought protein
T7 sequence (looked up): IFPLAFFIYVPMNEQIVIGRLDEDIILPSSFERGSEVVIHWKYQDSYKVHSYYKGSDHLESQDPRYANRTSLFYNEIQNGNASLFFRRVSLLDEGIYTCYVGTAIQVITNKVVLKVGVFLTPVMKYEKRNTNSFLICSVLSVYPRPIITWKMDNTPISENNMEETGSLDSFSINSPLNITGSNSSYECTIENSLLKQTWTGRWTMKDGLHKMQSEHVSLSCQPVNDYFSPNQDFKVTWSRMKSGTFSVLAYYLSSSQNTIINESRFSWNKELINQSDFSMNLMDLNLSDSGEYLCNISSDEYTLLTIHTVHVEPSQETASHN
Protocol: as §1, §2

Measured: binding result

T3 sequence (Q9NZQ7 19-238 limits assumed): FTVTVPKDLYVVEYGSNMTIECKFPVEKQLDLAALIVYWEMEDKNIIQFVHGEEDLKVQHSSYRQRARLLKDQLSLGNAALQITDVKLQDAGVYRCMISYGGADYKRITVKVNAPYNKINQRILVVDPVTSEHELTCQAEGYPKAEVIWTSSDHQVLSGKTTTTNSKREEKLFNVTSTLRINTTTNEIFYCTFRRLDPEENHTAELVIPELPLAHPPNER

B1: 6B5 (antibody, human IgG1, kappa, V domains shown)
VH: QVQLVESGPGLVKPSQTLSLTCTVSDGSISSGGYYWSWIRQHPGKGLEWIGYIYYSGGTYYSPSLKSRVTISVDTSKNQFSLKLTSVTAADTAVYYCARRAGYSSSFDSWGQGILVTVSS
VL: EIVLTQSPLSLPVTPGEPASISCRSSQSLLYSNGYTYLDWYLQKPGQSPQFLIYLGFNRASGVPDRFSGSGSGTDFTLKISRVEAEDVGVYYCMQGLQTPYTFGQGTKLEIKR
notes: also called 6B5-WT; Ab6B5
no binding (tested: 200 nM): [1] | [2] | [3] | [4] | [5] | [6] | [7]
